The record followed here is patent publication CN113372448A.

The target in this test is CIB-OVA (cimbuterol coupled to ovalbumin, detection/coating antigen) (UniProt P01012). Nature of the test: indirect ELISA of soluble scFv (periplasmic extract), steps as in Example 2 (CIB-OVA coated); negative control pCANTAB-5E/HB2151. A general note: ELISA stands for enzyme-linked immunosorbent assay.
Chain of UniProt P01012 (P01012 2-386 limits assumed, form in doubt): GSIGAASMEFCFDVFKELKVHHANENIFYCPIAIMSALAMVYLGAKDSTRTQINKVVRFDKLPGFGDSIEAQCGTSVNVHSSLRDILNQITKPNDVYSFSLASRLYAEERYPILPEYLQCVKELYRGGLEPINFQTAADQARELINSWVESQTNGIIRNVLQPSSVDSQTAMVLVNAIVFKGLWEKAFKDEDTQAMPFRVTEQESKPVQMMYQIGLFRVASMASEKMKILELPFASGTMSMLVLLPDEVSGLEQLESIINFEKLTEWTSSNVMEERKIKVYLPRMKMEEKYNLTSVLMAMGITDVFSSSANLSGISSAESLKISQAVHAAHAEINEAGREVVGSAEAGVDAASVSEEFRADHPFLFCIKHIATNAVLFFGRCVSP

B1: 5-CIB-ScFv (soluble anti-CIB single-chain antibody expressed from CIB-ScFv-pCANTAB5E in E. coli HB2151) (scFv, not shown: small tags and cut ends)
scFv: QVQLQESGADLVRPGTSVKVSCKASGYAFTNYLIEWVKQRPGQGLEWIGVINPGSGGTNYNEKFKGKATLTTDKSSSTAYMQLNSLTSEDSAVYFCKRPPMITTRRTGFDYWGQGTTVTVSSGGGGSGGGGSGGGGSDIELTQSPTTMAASPGEKITITCSATSSLSSNYLHWYQQKPGFSPKLLIYRTSNLASGVPTRFSGSGSGTSYSLTIGTMEAEDVATYYCHQYHRSPFTFGSGTKLEIKR
B1 returned a 效价 (titre, P/N>2.1) (dilution factor (1:x)) of 160.
